Changes are numbered by the printed parent chain. Numbers in names are those of the source.
Tests used:
probe 5 (FITC-LRSR-AOMK) = target: T1, probe 5 (FITC-LRSR-AOMK)
T1 chain: LRSR

z-VRPR-FMK = target: T2, z-VRPR-FMK (not fully specified)
T2 chain: VRPR

FLAG-A20, P21580 = target: T3, FLAG-A20, P21580
T3 chain: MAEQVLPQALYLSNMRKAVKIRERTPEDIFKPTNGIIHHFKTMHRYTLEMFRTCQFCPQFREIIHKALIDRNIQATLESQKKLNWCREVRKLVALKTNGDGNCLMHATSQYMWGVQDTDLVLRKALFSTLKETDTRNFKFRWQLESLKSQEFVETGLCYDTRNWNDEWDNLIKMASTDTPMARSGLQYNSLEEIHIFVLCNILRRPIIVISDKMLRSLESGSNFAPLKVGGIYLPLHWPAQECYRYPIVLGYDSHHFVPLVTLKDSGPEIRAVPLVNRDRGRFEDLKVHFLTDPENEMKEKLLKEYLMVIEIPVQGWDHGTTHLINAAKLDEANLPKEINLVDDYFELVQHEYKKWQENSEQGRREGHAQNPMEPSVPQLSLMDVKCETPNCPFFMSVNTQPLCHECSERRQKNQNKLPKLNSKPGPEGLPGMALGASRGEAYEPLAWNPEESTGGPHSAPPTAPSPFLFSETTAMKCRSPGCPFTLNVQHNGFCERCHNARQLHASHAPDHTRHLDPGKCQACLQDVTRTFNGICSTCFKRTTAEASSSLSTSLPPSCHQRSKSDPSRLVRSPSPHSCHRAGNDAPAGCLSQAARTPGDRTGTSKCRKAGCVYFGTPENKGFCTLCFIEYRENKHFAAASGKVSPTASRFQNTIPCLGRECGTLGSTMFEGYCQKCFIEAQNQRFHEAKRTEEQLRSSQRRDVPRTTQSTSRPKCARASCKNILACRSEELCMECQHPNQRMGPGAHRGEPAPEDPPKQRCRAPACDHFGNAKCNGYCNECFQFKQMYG

B1: MALT1 (in vitro cleavage assay of FIG. 3C) (protein)
chain: MSLLGDPLQALPPSAAPTGPLLAPPAGATLNRLREPLLRRLSELLDQAPEGRGWRRLAELAGSRGRLRLSCLDLEQCSLKVLEPEGSPSLCLLKLMGEKGCTVTELSDFLQAMEHTEVLQLLSPPGIKITVNPESKAVLAGQFVKLCCRATGHPFVQYQWFKMNKEIPNGNTSELIFNAVHVKDAGFYVCRVNNNFTFEFSQWSQLDVCDIPESFQRSVDGVSESKLQICVEPTSQKLMPGSTLVLQCVAVGSPIPHYQWFKNELPLTHETKKLYMVPYVDLEHQGTYWCHVYNDRDSQDSKKVEIIIDELNNLGHPDNKEQTTDQPLAKDKVALLIGNMNYREHPKLKAPLVDVYELTNLLRQLDFKVVSLLDLTEYEMRNAVDEFLLLLDKGVYGLLYYAGHGYENFGNSFMVPVDAPNPYRSENCLCVQNILKLMQEKETGLNVFLLDMCRKRNDYDDTIPILDALKVTANIVFGYATCQGAEAFEIQHSGLANGIFMKFLKDRLLEDKKITVLLDEVAEDMGKCHLTKGKQALEIRSSLSEKRALTDPIQGTEYSAESLVRNLQWAKAHELPESMCLKFDCGVQIQLGFAAEFSNVMIIYTSIVYKPPEIIMCDAYVTDFPLDLDIDPKDANKGTPEETGSYLVSKDLPKHCLYTRLSSLQKLKEHLVFTVCLSYQYSGLEDTVEDKQEVNVGKPLIAKLDMHRGLGRKTCFQTCLMSNGPYQSSAATSGGAGHYHSLQDPFHGVYHSHPGNPSNVTPADSCHCSRTPDAFISSFAHHASCHFSRSNVPVETTDEIPFSFSDRLRISEK
In the case of B1, the “in vitro protease activity measurements (cleavage of fluorescent substrates)” value (probe 5 (FITC-LRSR-AOMK)) is reported as “probe 5 and also z-VRPR-FMK did not only inhibit MALT1” and the “in vitro protease activity measurements (cleavage of fluorescent substrates)” value (z-VRPR-FMK) is reported as “probe 5 and also z-VRPR-FMK did not only inhibit MALT1”.

B2: recombinant Caspase-8 (protein)
chain: SESQTLDKVYQMKSKPRGYCLIINNHNFAKAREKVPKLHSIRDRNGTHLDAGALTTTFEELHFEIKPHDDCTVEQIYEILKIYQLMDHSNMDCFICCILSHGDKGIIYGTDGQEAPIYELTSQFTGLKCPSLAGKPKVFFIQACQGDNYQKGIPVETDSEEQPYLEMDLSSPQTRYIPDEADFLLGMATVNNCVSYRNPAEGTWYIQSLCQSLRERCPRGDDILTILTEVNYEVSNKDDKKNMGKQMPQPTFTLRKKLVFPSD
With B2 the “in vitro protease activity measurements (DEVD-AMC cleavage)” value (probe 5 (FITC-LRSR-AOMK)) was “As expected, Caspase 8 activity was not affected by the diagnostic inhibitors of MALT1 of the present invention”.

B3: FLAG-MALT1 wt (MALT1 Isoform B, overexpressed in Jurkat T cells) (protein)
chain: SLLGDPLQALPPSAAPTGPLLAPPAGATLNRLREPLLRRLSELLDQAPEGRGWRRLAELAGSRGRLRLSCLDLEQCSLKVLEPEGSPSLCLLKLMGEKGCTVTELSDFLQAMEHTEVLQLLSPPGIKITVNPESKAVLAGQFVKLCCRATGHPFVQYQWFKMNKEIPNGNTSELIFNAVHVKDAGFYVCRVNNNFTFEFSQWSQLDVCDIPESFQRSVDGVSESKLQICVEPTSQKLMPGSTLVLQCVAVGSPIPHYQWFKNELPLTHETKKLYMVPYVDLEHQGTYWCHVYNDRDSQDSKKVEIIIDELNNLGHPDNKEQTTDQPLAKDKVALLIGNMNYREHPKLKAPLVDVYELTNLLRQLDFKVVSLLDLTEYEMRNAVDEFLLLLDKGVYGLLYYAGHGYENFGNSFMVPVDAPNPYRSENCLCVQNILKLMQEKETGLNVFLLDMCRKRNDYDDTIPILDALKVTANIVFGYATCQGAEAFEIQHSGLANGIFMKFLKDRLLEDKKITVLLDEVAEDMGKCHLTKGKQALEIRSSLSEKRALTDPIQGTEYSAESLVRNLQWAKAHELPESMCLKFDCGVQIQLGFAAEFSNVMIIYTSIVYKPPEIIMCDAYVTDFPLDLDIDPKDANKGTPEETGSYLVSKDLPKHCLYTRLSSLQKLKEHLVFTVCLSYQYSGLEDTVEDKQEVNVGKPLIAKLDMHRGLGRKTCFQTCLMSNGPYQSSAATSGGAGHYHSLQDPFHGVYHSHPGNPSNVTPADSCHCSRTPDAFISSFAHHASCHFSRSNVPVETTDEIPFSFSDRLRISEK
B3 was tested, and the “MALT1 cleavage of A20, analyzed by western blot” value (FLAG-A20, P21580) was “only wt MALT1 is capable of cleaving its substrates”.

B4: FLAG-MALT1 active site mutant C464A (C453A in Isoform B) (protein)
chain: B3 chain with C452A
In the case of B4, the “MALT1 cleavage of A20, analyzed by western blot” value (FLAG-A20, P21580) is reported as “only wt MALT1 is capable of cleaving its substrates (the mutant does not cleave)”.

Reference: US20160327558
